Data taken from patent publication US20200354430A1 (OPKO BIOLOGICS, published 2020).
Each block holds one molecule with its values, some of them ahead of it.

Experiments:
[1] = target: MOD-5000/TF complex (UniProt P08709); test: cell-based or functional assay
[2] = target: MOD-5014/TF complex (UniProt P13726); test: cell-based or functional assay
[3] = system: MOD-5014 (activated CTP-modified human Factor VII, FVIIa-CTP3)
[4] = target: MOD-5000/TF complex (UniProt P08709)
[5] = target: MOD-5000 (commercial recombinant hFVIIa, NovoSeven) (UniProt P08709)
[6] = target: MOD-5014/TF complex (UniProt P13726)
[7] = target: T1, Tissue factor (TF), P13726
T1 chain: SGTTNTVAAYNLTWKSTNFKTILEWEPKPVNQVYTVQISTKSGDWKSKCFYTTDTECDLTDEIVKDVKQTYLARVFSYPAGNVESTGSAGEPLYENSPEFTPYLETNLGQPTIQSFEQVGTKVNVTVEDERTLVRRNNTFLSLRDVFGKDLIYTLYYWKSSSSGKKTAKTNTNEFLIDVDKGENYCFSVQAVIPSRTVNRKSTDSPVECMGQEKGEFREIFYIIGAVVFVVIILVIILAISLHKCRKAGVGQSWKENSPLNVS

[8] = target: T2, MOD-5014 (activated CTP-modified human Factor VII, FVIIa-CTP3) (human, UniProt P08709 61-212, O-glycans on the CTP serines, sialylated; N-glycans (positions not given); gamma-carboxyglutamic acid (Gla) residues (highly gamma carboxylated; positions not given)); test: titration of FVIIa (0-2 nM) on fixed TF (10 pM), read out as rate of FX activation (Pefachrome FXa)
T2 construct: also called FVIIa-CTP-CTP-CTP; FVIIa-3*CTP
T2 sequence (light): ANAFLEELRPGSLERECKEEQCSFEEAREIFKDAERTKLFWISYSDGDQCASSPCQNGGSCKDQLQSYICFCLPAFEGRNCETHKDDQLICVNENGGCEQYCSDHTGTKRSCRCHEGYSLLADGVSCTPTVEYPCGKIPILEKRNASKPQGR
T2 sequence (heavy): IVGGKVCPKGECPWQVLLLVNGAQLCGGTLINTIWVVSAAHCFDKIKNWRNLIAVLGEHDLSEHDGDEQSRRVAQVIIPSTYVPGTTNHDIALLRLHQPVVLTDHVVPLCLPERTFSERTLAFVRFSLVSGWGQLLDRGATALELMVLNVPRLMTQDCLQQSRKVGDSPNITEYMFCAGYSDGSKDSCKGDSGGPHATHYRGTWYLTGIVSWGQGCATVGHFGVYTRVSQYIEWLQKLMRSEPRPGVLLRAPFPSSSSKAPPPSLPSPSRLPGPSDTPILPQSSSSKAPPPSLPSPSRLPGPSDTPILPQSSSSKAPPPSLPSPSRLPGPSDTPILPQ
Source text: Cleavage of synthetic substrate is converted to FXa concentration by a standard curve.

sensitivity to TFPI inhibition of FXa generation relative to MOD-5000 [2]: 124%
Molecule: tissue factor pathway inhibitor (TFPI) (from UniProt P10646 29-304)

Kd [8]: 3 pM
B2: Tissue factor (TF) (receptor, UniProt P13726 33-295, looked up)
chain: T1 chain

Second part, the molecule before the results:

Molecule: anti-thrombin (AT) (from UniProt P01008 33-464)
k, rate constant of loss of FVIIa/TF activity with AT and heparin [1]: 0.354 min⁻¹
k, rate constant of loss of FVIIa/TF activity with AT and heparin [2]: 0.217 min⁻¹
rate of inhibition by AT relative to MOD-5000 [2]: 62%

Molecule: Factor X (FX)
Km of FX activation by lipid-bound FVIIa without TF [3]: 0.848 µM
Vmax of FX activation by lipid-bound FVIIa without TF [3]: 0.115 nM FXa/min
rate of FX activation on a lipid surface in the absence of TF relative to MOD-5000 [3]: The rate of FX activation on a lipid surface in the absence of TF is lower for MOD-5014 (45%) relative to MOD-5000
Km of FX activation by FVIIa/TF [4]: 0.14 µM
Vmax of FX activation by FVIIa/TF as a function of FX concentration [4]: 1.78 nM FXa/min
Km of FX activation by lipid-bound FVIIa without TF [5]: 0.878 µM
Vmax of FX activation by lipid-bound FVIIa without TF [5]: 0.253 nM FXa/min
Km of FX activation by FVIIa/TF [6]: 0.12 µM
Vmax of FX activation by FVIIa/TF as a function of FX concentration [6]: 1.64 nM FXa/min
turnover of FX relative to MOD-5000 [6]: When bound to TF, MOD-5014 had a slightly reduced turnover of FX (92%) relative to MOD-5000

B1: MOD-5014 (activated CTP-modified human Factor VII, FVIIa-CTP3) (protein)
chain 1: T2 sequence (light)
chain 2: T2 sequence (heavy)
Vmax of FX activation at saturation of TF with FVIIa [7]: 1.3 nM FXa/min
k2, rate of Pefachrome FVIIa substrate cleavage by the VIIa/TF complex (mol pNA/min/mol VIIa/TF) [7]: 357
